Reference: the supplement of paper PMC9112550, “Optimization of the antimicrobial peptide Bac7 by deep mutational scanning” (BMC Biology, 2022)

The sequences below were run on Escherichia coli TOP10 (assay: shrunken log2 fold change of peptide-encoding DNA abundance (4.5 h post-induction vs induction); higher = less antimicrobial activity (less host growth inhibition)). Conditions: time post-induction: 4.5 h; library: site-saturation at positions 5, 18, 19, 20.
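Also: peptides expressed intracellularly from a pBAD plasmid library in pooled LB shake-flask culture, induced with 0.3% L-arabinose, DNA abundance read by NGS, three biological replicates, DESeq2 with apeglm shrinkage.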

In order of rising “shrunken log2 fold change” value:
1. RRIRLRPPRLPRPRPRPMAHPRP  -0.944
2. RRIRVRPPRLPRPRPRPYCYPRP  -0.745
3. RRIRIRPPRLPRPRPRPSPNPRP  -0.735
4. RRIRDRPPRLPRPRPRPYNHPRP  -0.704
5. RRIRPRPPRLPRPRPRPNQYPRP  -0.509
6. RRIRWRPPRLPRPRPRPSYMPRP  -0.502
7. RRIRFRPPRLPRPRPRPMCYPRP  -0.416
8. RRIRQRPPRLPRPRPRPWQYPRP  -0.366
9. RRIRTRPPRLPRPRPRPCFTPRP  -0.358
10. RRIRTRPPRLPRPRPRPILHPRP  -0.324
11. RRIRIRPPRLPRPRPRPGVNPRP  -0.319
12. RRIRVRPPRLPRPRPRPSAIPRP  -0.258
13. RRIRNRPPRLPRPRPRPKQHPRP  -0.253
14. RRIRNRPPRLPRPRPRPGINPRP  -0.253
15. RRIRIRPPRLPRPRPRPQMIPRP  -0.241
16. RRIRTRPPRLPRPRPRPKWIPRP  -0.232
17. RRIRWRPPRLPRPRPRPLQGPRP  -0.21
18. RRIRKRPPRLPRPRPRPDFIPRP  -0.209
19. RRIRARPPRLPRPRPRPQYRPRP  -0.208
20. RRIRIRPPRLPRPRPRPVGFPRP  -0.182
21. RRIRIRPPRLPRPRPRPWMQPRP  -0.182
22. RRIRPRPPRLPRPRPRPQCPPRP  -0.172
23. RRIRIRPPRLPRPRPRPQLVPRP  -0.163
24. RRIRIRPPRLPRPRPRPGEYPRP  -0.161
25. RRIRPRPPRLPRPRPRPCQHPRP  -0.161
26. RRIRYRPPRLPRPRPRPWNGPRP  -0.155
27. RRIRDRPPRLPRPRPRPFKKPRP  -0.145
28. RRIRRRPPRLPRPRPRPWFKPRP  -0.139
29. RRIRTRPPRLPRPRPRPDWFPRP  -0.112
30. RRIRQRPPRLPRPRPRPGYKPRP  -0.0992
31. RRIRVRPPRLPRPRPRPVIFPRP  -0.0885
32. RRIRCRPPRLPRPRPRPPWYPRP  -0.0833
33. RRIRWRPPRLPRPRPRPQFKPRP  -0.0678
34. RRIRTRPPRLPRPRPRPYWAPRP  -0.0649
35. RRIRMRPPRLPRPRPRPWKRPRP  -0.0605
36. RRIRTRPPRLPRPRPRPEICPRP  -0.0438
37. RRIRDRPPRLPRPRPRPRGIPRP  -0.0372
38. RRIRARPPRLPRPRPRPQVLPRP  -0.0334
39. RRIRSRPPRLPRPRPRPHCEPRP  -0.0301
40. RRIRYRPPRLPRPRPRPEFMPRP  -0.0255
41. RRIRFRPPRLPRPRPRPHQAPRP  -0.0233
42. RRIRERPPRLPRPRPRPWCQPRP  -0.0135
43. RRIRHRPPRLPRPRPRPEAQPRP  -0.00183
44. RRIRQRPPRLPRPRPRPQHGPRP  -0.000236
45. RRIRSRPPRLPRPRPRPKTNPRP  0.00294
46. RRIRFRPPRLPRPRPRPQERPRP  0.0046
47. RRIRYRPPRLPRPRPRPKRFPRP  0.00705
48. RRIRCRPPRLPRPRPRPNRAPRP  0.00805
49. RRIRARPPRLPRPRPRPKSMPRP  0.0164
50. RRIRRRPPRLPRPRPRPITTPRP  0.032
51. RRIRHRPPRLPRPRPRPWYDPRP  0.0351
52. RRIRQRPPRLPRPRPRPAWVPRP  0.0382
53. RRIRPRPPRLPRPRPRPDDSPRP  0.0427
54. RRIRFRPPRLPRPRPRPKPFPRP  0.0515
55. RRIRTRPPRLPRPRPRPALYPRP  0.0598
56. RRIRPRPPRLPRPRPRPCDGPRP  0.0661
57. RRIRSRPPRLPRPRPRPAELPRP  0.0682
58. RRIRNRPPRLPRPRPRPWGAPRP  0.0894
59. RRIRFRPPRLPRPRPRPLMWPRP  0.0935
60. RRIRFRPPRLPRPRPRPFFWPRP  0.118
61. RRIRSRPPRLPRPRPRPTSNPRP  0.133
62. RRIRGRPPRLPRPRPRPQTGPRP  0.162
63. RRIRNRPPRLPRPRPRPWKNPRP  0.175
64. RRIRMRPPRLPRPRPRPNGWPRP  0.175
65. RRIRRRPPRLPRPRPRPVWDPRP  0.246
66. RRIRDRPPRLPRPRPRPGEQPRP  0.259
67. RRIRKRPPRLPRPRPRPVAWPRP  0.315
68. RRIRCRPPRLPRPRPRPGWQPRP  0.331
69. RRIRLRPPRLPRPRPRPVGGPRP  0.516
70. RRIRCRPPRLPRPRPRPTHWPRP  0.546
71. RRIRRRPPRLPRPRPRPRLRPRP  0.848
72. RRIRARPPRLPRPRPRPNLIPRP  1.17
73. RRIRKRPPRLPRPRPRPDDWPRP  1.73
74. RRIRCRPPRLPRPRPRPFHNPRP  2.29
75. RRIRMRPPRLPRPRPRPECMPRP  2.53
